In the data set the test system is Nc1ncnc2c1ncn2[C@@H]1O[C@H](COP(=O)(O)OP(=O)(O)OP(=O)(O)O)[C@@H](O)[C@H]1O. Kind of data set: kinase activity assay. The data set is classed as biochemical, Homo sapiens. The following applies: co-substrate and buffer of the KM determination not told.

Experimental findings from doi:10.1101/2022.12.23.521429v4 are described below.

As for “DYRK1B kinase domain (78-442) (Homo sapiens)”, the Km stood at 105 µM.
